Experiments:
[1] = target: LILRB1 and LILRB2 on human primary myeloid cells (monocytes, M0 and M2c macrophages, mDCs, neutrophils); assay: flow cytometry, monocytes, AF647-labelled antibody, mean of two subjects
[2] = target: LILRB1 and LILRB2 on human primary myeloid cells (monocytes, M0 and M2c macrophages, mDCs, neutrophils); assay: flow cytometry, M0 macrophages, AF647-labelled antibody, mean of two subjects
[3] = target: LILRB1 and LILRB2 on human primary myeloid cells (monocytes, M0 and M2c macrophages, mDCs, neutrophils); assay: flow cytometry, M2c macrophages, AF647-labelled antibody, mean of two subjects

EC50 [1]: 0.823 µg/mL | EC50 [2]: 0.0937 µg/mL | EC50 [3]: 0.0862 µg/mL
B1: Comp 1 (anti-LILRB1 antibody) (antibody, human IgG1, kappa, V domains shown)
VH: QVQLKESGPGLVAPSQSLSITCTVSGFSLTNYGVSWVRQPPGKGLEWLGIIWGDGSTNYHSALISRLSISKDNSKSQVFLKLNSLQADDTATYYCAKPNWDTYAMDFWGQGTSVTVSS
VL: DIQMTQTTSSLSASLGDRVTISCRASQDISNFLNWYQQKPDGTVKLLIYCTSKLHSGVPSRFSGSGSETDYSLTISNLEQEDIATYFCQQGNTLPPTFGGGTKLEIIR
